Test results from article PMC12124961.

What was measured:
[1] = biological target: Bxb1 gp19, tail tube protein (Mycobacteriophage Bxb1); assay: cryo-EM structure
[2] = biological target: Bxb1 gp31, tail wing arm (Mycobacteriophage Bxb1); assay: cryo-EM structure

Row | stoichiometry N [1] | stoichiometry N [2] | Substance
1 | 6 | – | Bxb1 gp19, tail tube protein (natural protein)
2 | – | 2 | Bxb1 gp31, tail wing arm (natural protein)
